According to article doi:10.1101/2022.12.03.518990:
Like-named read-outs stand apart in the source and are kept apart here.

Key:
[1] = target: GMPCPP-stabilized microtubules (TAMRA-labeled, polymerized from bovine brain tubulin) (bovine) (UniProt Q6B856); test: single-molecule TIRF microscopy, dwell times
[2] = target: GMPCPP-stabilized microtubules (TAMRA-labeled, polymerized from bovine brain tubulin) (bovine) (UniProt Q6B856); test: single-molecule TIRF microscopy, dwell times; remark: listed apart in the source

Chain of UniProt Q6B856 (Q6B856 whole entry, looked up): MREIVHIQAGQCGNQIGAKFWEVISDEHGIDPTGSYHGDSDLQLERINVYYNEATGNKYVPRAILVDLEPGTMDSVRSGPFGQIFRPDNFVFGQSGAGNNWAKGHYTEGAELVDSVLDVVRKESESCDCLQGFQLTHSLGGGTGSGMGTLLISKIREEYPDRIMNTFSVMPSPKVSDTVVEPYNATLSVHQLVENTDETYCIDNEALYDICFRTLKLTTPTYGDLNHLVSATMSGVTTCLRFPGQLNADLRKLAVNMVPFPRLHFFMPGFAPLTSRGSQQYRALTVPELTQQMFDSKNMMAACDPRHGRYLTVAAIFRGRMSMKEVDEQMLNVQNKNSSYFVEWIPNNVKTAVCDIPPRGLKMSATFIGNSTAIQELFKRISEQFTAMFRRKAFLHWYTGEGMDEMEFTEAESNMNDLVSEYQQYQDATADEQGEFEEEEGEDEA

“His-EGFP-L-TOG2-S (EGFP-tagged TOG2 domain and serine-arginine-rich region of human CLASP2α) (domain or fragment)” showed a mean dwell time [1] of 3.8 s and a mean dwell time [2] of 0.53 s.
